Data taken from patent US20090068202A1 (Genentech, published 2009).
No end group written: not given here.

T1: extracellular domain of human CD79b (huCD79becd) (human, UniProt P40259 29-159)
T1 construct: Expressed in CHO cells
T1 sequence: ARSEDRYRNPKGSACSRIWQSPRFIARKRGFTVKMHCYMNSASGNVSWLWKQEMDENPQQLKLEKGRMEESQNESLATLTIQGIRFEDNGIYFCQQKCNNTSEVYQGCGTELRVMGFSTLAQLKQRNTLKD

T2: human CD79b on BJAB cells (human, UniProt P40259 29-229)
T2 construct: Endogenous CD79b of BJAB cells; also called PRO36249; endogenous human-CD79b
T2 sequence: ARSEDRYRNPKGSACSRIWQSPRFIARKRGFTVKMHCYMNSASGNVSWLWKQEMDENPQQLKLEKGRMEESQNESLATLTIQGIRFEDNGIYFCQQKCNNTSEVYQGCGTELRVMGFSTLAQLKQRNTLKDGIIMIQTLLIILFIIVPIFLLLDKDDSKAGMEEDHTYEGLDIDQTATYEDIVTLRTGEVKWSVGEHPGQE

T3: 16 amino acid peptide (ARSEDRYRNPKGSACK) containing the epitope for 2F2 (human, also: biotinylated, site not given here)
T3 construct: Synthetic peptide; Captured as biotinylated peptide on a streptavidin sensor chip; also called 16mer peptide; test peptide
T3 peptide: ARSEDRYRNPKGSACK

T4: extracellular domain of human CD79b fused to Fc (huCD79becd-Fc) (human, UniProt P40259 29-159)
T4 construct: Expressed in CHO cells; also called huCD79b-Fc; CD79b-Fc
T4 sequence: T1 sequence

B1: hu 2F2.D7 (Fab column) (Fab, V domains shown)
VH: EVQLVESGGGLVQPGGSLRLSCAASGYTFTSYWMNWVRQAPGKGLEWVGMIDPSDSETHYNHIFKDRFTISADTSKNTAYLQMNSLRAEDTAVYYCARNLYLWGQGTLVTVSS
VL: DIQMTQSPSSLSASVGDRVTITCKSSQSLLDSDGKTYLNWYQQKPGKAPKLLIYLVSKLDSGVPSRFSGSGSGTDFTLTISSLQPEDFATYYCFQGTHFPFTFGQGTKVEIKR
notes: also called 2F2-grafted humanized antibody variant 7 as purified Fab; copies: 1 + 1
B2: 2F2-grafted "humanized" antibody variant 7 (hu2F2.D7), reformatted as IgG (antibody, V domains shown)
VH: B1 VH
VL: B1 VL
notes: also called humanized 2F2.D7
B3: chimeric 2F2 antibody (ch2F2) IgG1 (antibody, V domains shown)
VH: QVQLQQPGAELVRPGASVKLSCKASGYTFTSYWMNWVKQRPGQGLEWIGMIDPSDSETHYNHIFKDKATLTVDKSSSTAYLQLSSLTSEDSAVYYCARNLYLWGQGTSVTVSL
VL: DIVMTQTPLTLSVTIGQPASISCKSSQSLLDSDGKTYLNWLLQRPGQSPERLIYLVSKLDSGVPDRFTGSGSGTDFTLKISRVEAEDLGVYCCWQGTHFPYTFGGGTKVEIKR

Experiments:
[1] = target: T1, extracellular domain of human CD79b …; assay: Biacore surface plasmon resonance; huCD79becd immobilized on CM5 chip, Fab injected
Protocol: (§1) Binding of Fab and IgG variants of ch2F2, the 2F2-grafted “humanized” antibody (hu2F2 graft) or 2F2-grafted “humanized” antibody variant 7 (hu2F2.D7) to immobilized huCD79becd or CD79b-Fc or the 16 amino acid peptide containing the epitope for 2F2 was measured by surface plasma resonance. Affinity determinations were performed by surface plasmon resonance using a BIAcore™-2000. The antigen, huCD79becd or huCD79b-Fc was immobilized (approximately 50-200 RU) in 10 mM sodium acetate pH 4.8 on a CM5 sensor chip. In experiments that measured binding to the 16 amino acid peptide ([…]) (SEQ ID NO: 78) containing the epitope (amino acids 1-11 of SEQ ID NO: 78) for 2F2, the biotinylated peptide was captured (approximately 20 RU) on a streptavidin coated sensor chip. Purified 2F2-grafted “humanized” antibody variant (as Fab or IgG) (a 2-fold serial dilution of 0.5 to 1000 nM in PBST) was injected at a flow rate of 30 μL/min. Each sample was analyzed with 4-minute association and 10-minute disassociation. After each injection the chip was regenerated using 10 mM Glycine pH 1.7.
(§2) Binding response was corrected by subtracting a control flow cell from 2F2-grafted “humanized” antibody variant (as Fab or IgG) flow cells. A 1:1 Languir model of simultaneous fitting of kₒₙ and koff was used for kinetics analysis.

[2] = target: T2, human CD79b on BJAB cells; assay: Scatchard analysis, I-125 hu2F2.D7 competed by unlabeled hu2F2.D7 IgG on BJAB cells stably expressing cynomolgus CD79b and endogenous human CD79b; hu2F2.D7 reformatted as IgG; BJAB cells stably expressing cynomolgus CD79b and endogenous human CD79b
Protocol: (§3) To further determine binding of the IgG variants of the 2F2-graft “humanized” antibody variant 7 (hu2F2.D7) having changes in HVR-L3, binding of iodinated anti-CD79b (with the same epitope as ch2F2) to BJAB cells expressing human CD79b and cynomologous CD79b using competition with unlabeled ch2F2 was analyzed and Scatchard analysis was performed.
(§4) For Scatchard analysis, 0.5 nM I¹²⁵ labeled anti-human CD79b with the same epitope as ch2F2 or 0.5 nM I¹²⁵ labeled 2F2-graft “humanized” antibody variant 7 (hu2F2.D7) was competed against unlabeled ch2F2 or hu2F2.D7, respectively, ranging from 50 to 0.02 nM (12 step 1:2 serial dilution) in the presence of a transfected BJAB line stably expressing cynomologous-CD79b and endogenous human-CD79b. After a four hour incubation at 4° C., cells were washed and cell pellet counts were read by a gamma counter (1470 WIZARD Automatic Gamma Counter; Perkin Elmer, Walthem, Mass.). All points were done in triplicate and counted for 10 minutes. The average CPM was used for Kd calculation using the New Ligand (Genentech, South San Francisco, Calif.) program.

[3] = target: T1, extracellular domain of human CD79b …; assay: Biacore surface plasmon resonance; huCD79becd immobilized on CM5 chip, IgG injected
Protocol: as §1, §2

[4] = target: T3, 16 amino acid peptide …; assay: Biacore surface plasmon resonance; biotinylated 16mer peptide captured on streptavidin chip, IgG injected
Protocol: as §1, §2

[5] = target: T4, extracellular domain of human CD79b …; assay: Biacore surface plasmon resonance; huCD79becd-Fc immobilized on CM5 chip, IgG injected
Protocol: as §1, §2

[6] = target: T2, human CD79b on BJAB cells; assay: Scatchard analysis, I-125 tracer competed by unlabeled IgG on BJAB cells stably expressing cynomolgus CD79b and endogenous human CD79b; ch2F2 IgG; BJAB cells stably expressing cynomolgus CD79b and endogenous human CD79b
Protocol: as §3, §4

[7] = target: T3, 16 amino acid peptide …; assay: Biacore surface plasmon resonance; biotinylated peptide captured on streptavidin chip, IgG injected; the sheet names the antigen '15mer peptide', legend and text name only the 16mer peptide (SEQ ID NO: 78)
Protocol: as §1, §2

Kd [1]	Kd [2]	Kd [3]	Kd [4]	Kd [5]	Kd [6]	Kd [7]	Binder
68 nM	–	–	–	–	–	–	B1
–	2 nM	3.9 nM	2.7 nM	–	–	–	B2
–	–	1.4 nM	–	2.7 nM	0.99 nM	2 nM	B3
